The chains are these.
B1: anti-DLL-4 antibody C10 (antibody, V domains shown)
VH: QVQLVESGAEVKKPGASVKVSCKASGYTFTSYYMHWVRQAPQGLEWMGIINPSGGSTSYAQKFQGRVTMTRDTSTNTVYMELSSLRSEDTAVYYCARDVWGGYFDYWGQGTLVTVSS
VL: QSVLTQPASVSGSPGQSITISCTGTSSDVGGYNYVSWYQQHPGKAPKLMIYDVTNRPSGVSNRFSGSKSGNTASLTISGLQAEDEADYYCSSYTSSSTVIFGGGTKLTVL
B2: anti-DLL-4 antibody G6 (antibody, V domains shown)
VH: EVQLVESGGSLVQPGGSLRLSCAASGFTFSNGWMTWLRQAPGKGLEWVATIKPDGSDTAYVESVKGRFTISRDNAKNLLYLQMDSLRGDDTAVYFCARDLAYNAFDIWGQGTMVTVSS
VL: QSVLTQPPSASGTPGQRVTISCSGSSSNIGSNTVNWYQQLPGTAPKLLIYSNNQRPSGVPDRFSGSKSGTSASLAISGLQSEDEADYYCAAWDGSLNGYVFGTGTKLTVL
B3: anti-DLL-4 antibody C3 (antibody, V domains shown)
VH: QVQLVQSGSELKKPGASVKVSCKASGYTFTSYYMHWVRQVPGQGLEWMGIINPSGGSTSYAQKFQGRVTMTRDTSTSTVYMELSSLRSEDTAVYYCATDYYDSSGYVDFDYWGQGTLVTVSS
VL: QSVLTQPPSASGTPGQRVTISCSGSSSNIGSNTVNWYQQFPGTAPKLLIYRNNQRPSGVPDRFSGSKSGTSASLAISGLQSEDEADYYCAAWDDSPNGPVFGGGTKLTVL

One assay concerns the target T1, recombinant human DLL4 (rhDLL4) (human, UniProt Q9NR61 27-524). The experiment in a line: Biacore SPR.
The term Kd denotes the free concentration of one partner at which half of the binding sites on the other are occupied at equilibrium, for simple one-to-one binding. Take B1: the Kd was found to be 1.18 nM.

Consider B2, for which the Kd is 1.15 nM.

With B3, the Kd was 0.884 nM.

The next assay addresses T1, recombinant human DLL4 (rhDLL4). The experiment in a line: Biacore SPR. This is another data set of the same source. (In SPR one partner is held on a chip, and binding of the other changes the refractive index at the surface.)
With B1, the Ka came out at 8.49e+08 M⁻¹.

In the case of B2, the Ka amounted to 8.72e+08 M⁻¹.

On to B3, for which the Ka was 1.13e+09 M⁻¹.

A further assay concerns the target T2, human DLL-4 expressed on the surface of CHO-K1 cells (CHO-DLL-4 cells) (human, UniProt Q9NR61 27-685). The experiment in a line: flow cytometry.
Usually EC50 stands for the concentration that produces a half-maximal response. Low readings indicate higher potency in that assay, high ones lower potency in that assay. Molecule B1 yielded an EC50 of 0.216 nM.

For B2, it took 0.305 nM to reach a half-maximal effect (EC50).

Turning to B3, the EC50 was determined as 0.107 nM.

For another assay, the target named is T2, human DLL-4 expressed on the surface of …. The experiment in a line: flow cytometry blocking of soluble Notch-1 binding. (In general: In flow cytometry, cells or beads pass a laser one at a time.)
Usually IC50 stands for the midpoint of a concentration-inhibition curve. A lower IC50 goes with greater potency. As to B1, the IC50 is 0.676 nM.

As to B2, the concentration for half-maximal inhibition (IC50) came out at 0.286 nM.

For the molecule B3, the IC50 is 0.364 nM.

Source of the values: patent publication US20130323248A1 (published 2013).
